The nanobody polyreactivity screen of Harvey et al. (2022)

assay: yeast display, Sf9 membrane polyspecificity reagent, FACS + sequencing; frameworks hold sequencing errors
Procedure, shortened: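 Sorting gates, low and high (top ~1%), were placed on anti-HA fluorescence to track expression and on streptavidin fluorescence to track reagent binding. A clone's polyreactivity label is taken from the gate it came out of. The reagent was 10% biotinylated, detergent-solubilized Sf9 membrane, applied for 1 hour at 4 °C to galactose-induced yeast display cells.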

Row | Sequence | polyreactivity (PSR sort gate)
1 | QVQLVESGGGLVQAGGSLRLSCAASGYTFYVYAMGWYRQAPGKERELVAAISSDTGRTYYADSVKGRFTISRDNAKNTVYLQMNSLKPEDTAVYYCAKRRVYGGYDYWGQGTQVTVSS | low polyreactivity
2 | QVQLVESGGGLVQAGGSLRLSCAASGYTFYWNVMGWYRQAPGKERELVAVIDWSGGSTHYADSVKGRFTISRDNAKNTVYLQMNSLKPEDTAVYYCAAESVYTWYYQDDDDYWGQGTQVTVSS | low polyreactivity
3 | QVQLVESGGGLVQAGGSLRLSCAASGYTIESYGMGWYRQAPGKDREMVAAIDWSGGSTYYADSVKGRFTISRDNAKNTVYLQMNSLIPEDTAVYYCNRDSAGPGDVILAYTGNDYWGQGTQVTVSS | low polyreactivity
4 | QVQLVESGGGLVQAGGSLRLSCAASGYTIRANAMGWYRQAPGKERELVAAISRSGGSTYYADSVKGRFTISRDNAKNTVYLQMNSLKPEDTAVYYCNTRQQYQFNYWGQGTQVTVSS | high polyreactivity
5 | QVQLVESGGGLVQAGGSLRLSCAASGYTISRYAMGWYIQAHGKERQLVAAISSRGGSTYYADSVKGRFTISRDNAKNTVYLQMNSLNPEDTADYYWAEDYGVGYGIVGSYYWGQGTQVTVSS | high polyreactivity
6 | QVQLVESGGGLVQAGGSLRLSCAASGYTITQNAMGWYRQAPGKERELVASITSGGSTDYADSVKGRFTISRDNAKNTVYLQMNSLKPEDTAVYYCAAGTATDVASIGATKDYDYWGQGTQVTVSS | low polyreactivity
7 | QVQLVESGGGLVQAGGSLRLSCAASGYTIYYYAMGWYRQAPGKERELVAVITSRGPRTYYADSVKGRFTISRDNAKNTVYLQMNSLKPEDTAVYYCNKARGVAYDWGQGTQVTVSS | high polyreactivity
8 | QVQLVESGGGLVQAGGSLRLSCAASGYTLGPYAMGWYRQAPGKERELVATISSAGNTNYADSVKGRFTISRDNAKNTVYLQMNSLKPEDTAVYYCAAAIWYGFGGASGGTYYYWGQGTQVTVSS | high polyreactivity
9 | QVQLVESGGGLVQAGGSLRLSCAASGYTLNTYAMGWYRQAPGKERELVAAITWSGGRTYYADSVKGRFTISRDNAKNTVYLQMNSLKPEDTAVYYCNAVWRRSTGDSGYWGQGTQVTVSS | high polyreactivity
10 | QVQLVESGGGLVQAGGSLRLSCAASGYTRFYAMGWYRHAPGKERELVAAISSSGGTTYYADSVKGRLTISRDNAKNTVYLQMNSLKPDDSAVYYCAKYVSYCRTLYEYWGQGTQVTVSS | high polyreactivity
11 | QVQLVESGGGLVQAGGSLRLSCAASGYTSNMGWYRQAPGKERELVAAITSGGDGTYYADSVKGRFTISRDNAKNTVYLQMNSLKPEDTAVYYCAKRGRDYNYGRAGYYWGQGTQVTVSS | low polyreactivity
12 | QVQLVESGGGLVQAGGSLRLSCAASGYTYRWYAMGWYRQAPGKEREMVAAINRNGGSTFYADSVKGRFTISRDNAKNSVYLQMNSLKPEDTAVYFCAARYSSLPRYLTDGLDYWGQGTQVTVSS | high polyreactivity
13 | QVQLVESGGGLVQAGGSLRLSCAASHANAIGWYRQAPGKERELVAAITYRGGSTYYADSVKGRFTISRDNAKNTVYLQMNSLKPEDTAVYYCNTDVYLYVYDFGYNYWGQGTQVTVSS | low polyreactivity
14 | QVQLVESGGGLVQAGGSLRLSCAASLRIFYSNAMGWSRQAPGKERELVAAISSSGGITYYADSVKGRFTISRDNAKNTVYLQMNSLKPEDTAVYYCAVDSRHYIRAFDHWGQGTQVTVSS | low polyreactivity
15 | QVQLVESGGGLVQAGGSLRLSCAASLSIFYVNAMGWYRQAPGKESELVAAISFSGGTTYYADSVKGRFTISRDNAKNTVYLQMNSLKPEDTAVYYCNTPSSREMDYWGQGTQVTVSS | low polyreactivity
16 | QVQLVESGGGLVQAGGSLRLSCAASMGWYRQAPGKERELVAAITTRTGTTYYADSVKGRFTISRDNAKNTVYLQMNSLKPEDTAVYYCSKRGYYRYYYWGQGTQVTVSS | high polyreactivity

Row | Sequence | polyreactivity (PSR sort gate)
17 | QVQLVESGGGLVQAGGSLRLSCAASPNIFHTYGMGWYRQAPWKERELVAAITSDGGTYYADSVKGRFTISRDNAKNTVYLQMNSLNPEDSAVYYCAAYTYYYAIHAYWGQGSQVTVSS | low polyreactivity
18 | QVQLVESGGGLVQAGGSLRLSCAASRIFRGYAMGWYRQAPGKERELVAAIRRGGSTNYADSVKGRFTISRDNAKNTVYLQMNCLKPEVTAVYYCNAYLYLPRYDYWGQGTQVTVSS | high polyreactivity
19 | QVQLVESGGGLVQAGGSLRLSCAASRITLNRNAMGWYRQAPGKERELVARISRRGGTTYYADSVKGRFTISRDNENNTVYLQMNSLKPEDTAVYYFNAGPYGGNPFDYWGQGPQVTVSS | high polyreactivity
20 | QVQLVESGGGLVQAGGSLRLSCAASRITSYGYAMGWYRQAPGKERELVAAISRSGGTTYYADSVKGRFTISRDNAKNTVYVQMNILKPEDTAVYYCAVGKSHRGGGVTKFNYWGQGTQVTVSS | low polyreactivity
21 | QVQLVESGGGLVQAGGSLRLSCAASRLIFRGNDMGWYRQAPGKERELLAGINSSGSTNYADSVKGRFTISRDNAKNTVYLHMNSLKPEDTAVYYCAARAIVSFDYWGQGTQVTVSS | low polyreactivity
22 | QVQLVESGGGLVQAGGSLRLSCAASRLTFNTYTIGWYRQAPGKERELVAGRSKSGGRTYYADSVKGRFTISRDNAKITVYLQMNILKAEDTSVYYCSTRSTTDFYWGHGTQVTVSS | high polyreactivity
23 | QVQLVESGGGLVQAGGSLRLSCAASRRIFASNAMGWNSQAPGKERELVAAITSSGGSTYYADSVKGRFTISLDNAKNTVYLQMNSLKPEDTAVYYCNAGDYYYRLVTAKPSSYDYWGQGTQVTVSS | high polyreactivity
24 | QVQLVESGGGLVQAGGSLRLSCAASRRIFSRYAMGWYRQAPGKERELVAAITGRGGSTYYADSVKGRFTISRDNAKNTVYLQMNSLKPEDTAVYYCAADVPPRRNFVKYYYWGQGTQVTVSS | high polyreactivity
25 | QVQLVESGGGLVQAGGSLRLSCAASRRTFIANAMGWYRQAPGNGREWVAVITLNGGSTYYADSVKRRFTLSRDNAKNTVYLQMNSLKPEDTAVYYCAADVYWDYYWGQGTQVTVSS | low polyreactivity
26 | QVQLVESGGGLVQAGGSLRLSCAASRRTFYYAMGWYRQAPWKERYADSVKGRFTISRDNAKNTVYLQMNSLKPVDTAVYYCAAKVPEPPSLDESDYWGQGTQVTVSS | low polyreactivity
27 | QVQLVESGGGLVQAGGSLRLSCAASRRTYKYNAMGWYRQAPGKEREVVAAISRSGGSTYYADSVKGRFTISRDNAKNTVYLQMNILKPEDTAVYDCAVSYRPGGYRRHFRYVYWGQGTQVTVSS | high polyreactivity
28 | QVQLVESGGGLVQAGGSLRLSCAASRSIFGIYTMGWSRQEPGKERELVAAIKSGGSTNYADSVKGRFTITRDNAKNTVYLQMNSKKPEDTAVYYCNAYIHPPGPRVYSREYDYWGQGTQVTVSS | low polyreactivity
29 | QVQLVESGGGLVQAGGSLRLSCAASRSIFQSYDMGWYRQAPGKERELVAAISWSGSTTYYADSVKGRFTISRDNAKNTVYLQMNSLKPEDTAVYYCAFDSNTPDWWAVIYGYWGQGTQVTVSS | low polyreactivity
30 | QVQLVESGGGLVQAGGSLRLSCAASRSIFVRNAMGWYRPAPGKERELVAAITSDVNTYYADSVKGRFTISRDNAKNTVYLQMNSLKPEDTAVYYCAKGVTSQPNDPAPFPRYEYWGQGTQVTVSS | low polyreactivity
31 | QVQLVESGGGLVQAGGSLRLSCAASRSTFRDNAMGWYRQAPGKVRELVAGITRGGITNYADSVKGRYTISRDNAKNTVYLQMNSLKPEDTEVYYFAAEVTGTYYDYDYWGQGTQVTVSS | low polyreactivity
32 | QVQLVESGGGLVQAGGSLRLSCAASTYLRLLMLWDGIDLRLGKKGSWLTLLTLVVNSTYYADSVKGRFTISRDNAKNTVFLQMNSLKPEDTAVYYCNVDPYGTYARTHLEYWGQGTQVTVSS | low polyreactivity
